# Assay results taken from US20240343791A1.
# Key:
# [1] = biological target: human VEGFA (Cat. No. Z03073, Genscript) (human) (UniProt P15692); assay: ELISA, plate coated with VEGFA, detection with HRP anti-human IgG
# [2] = biological target: human VEGFA (Cat. No. Z03073, Genscript) (human) (UniProt P15692)
# [3] = biological target: human VEGFA (Cat. No. Z03073, Genscript) (human) (UniProt P15692); assay: SPR (Biacore), protein captured on protein A chip, VEGFA as analyte, 25 C
# [4] = biological target: human VEGFA (Cat. No. Z03073, Genscript) (human) (UniProt P15692); assay: competition ELISA, Eylea coated as competitor, 5 nM VEGFA dimer pre-incubated with Conbercept
# [5] = biological target: human VEGFA (Cat. No. Z03073, Genscript) (human) (UniProt P15692); assay: competition ELISA: plate coated with Eylea, Conbercept in dilution series pre-incubated with 5 nM VEGFA, VEGFA bound to Eylea detected. The sheet prints ng/mL, the text prints nM
# Sequence of human VEGFA (Cat. No. Z03073, Genscript) (human) (P15692 other isoform, or with tags, fused parts or gaps limits assumed): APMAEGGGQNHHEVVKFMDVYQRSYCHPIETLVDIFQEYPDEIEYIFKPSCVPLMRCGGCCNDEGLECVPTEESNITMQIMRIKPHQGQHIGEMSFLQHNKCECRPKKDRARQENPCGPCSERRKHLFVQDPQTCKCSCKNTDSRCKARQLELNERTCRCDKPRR
# Sequence of Eylea (Fc fusion) (chain): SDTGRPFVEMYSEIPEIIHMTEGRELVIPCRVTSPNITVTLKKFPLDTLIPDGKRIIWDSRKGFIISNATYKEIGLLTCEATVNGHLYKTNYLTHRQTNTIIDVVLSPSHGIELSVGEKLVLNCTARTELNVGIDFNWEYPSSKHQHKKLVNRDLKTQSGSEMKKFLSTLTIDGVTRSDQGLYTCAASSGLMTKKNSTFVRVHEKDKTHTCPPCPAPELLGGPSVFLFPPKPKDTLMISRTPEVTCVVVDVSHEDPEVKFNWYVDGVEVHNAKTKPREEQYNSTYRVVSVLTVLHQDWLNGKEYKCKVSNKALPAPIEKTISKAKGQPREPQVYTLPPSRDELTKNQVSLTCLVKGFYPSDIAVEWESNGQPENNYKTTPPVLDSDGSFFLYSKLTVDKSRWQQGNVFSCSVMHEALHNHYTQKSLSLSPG
# Sequence of Conbercept eye injection (Fc fusion) (chain): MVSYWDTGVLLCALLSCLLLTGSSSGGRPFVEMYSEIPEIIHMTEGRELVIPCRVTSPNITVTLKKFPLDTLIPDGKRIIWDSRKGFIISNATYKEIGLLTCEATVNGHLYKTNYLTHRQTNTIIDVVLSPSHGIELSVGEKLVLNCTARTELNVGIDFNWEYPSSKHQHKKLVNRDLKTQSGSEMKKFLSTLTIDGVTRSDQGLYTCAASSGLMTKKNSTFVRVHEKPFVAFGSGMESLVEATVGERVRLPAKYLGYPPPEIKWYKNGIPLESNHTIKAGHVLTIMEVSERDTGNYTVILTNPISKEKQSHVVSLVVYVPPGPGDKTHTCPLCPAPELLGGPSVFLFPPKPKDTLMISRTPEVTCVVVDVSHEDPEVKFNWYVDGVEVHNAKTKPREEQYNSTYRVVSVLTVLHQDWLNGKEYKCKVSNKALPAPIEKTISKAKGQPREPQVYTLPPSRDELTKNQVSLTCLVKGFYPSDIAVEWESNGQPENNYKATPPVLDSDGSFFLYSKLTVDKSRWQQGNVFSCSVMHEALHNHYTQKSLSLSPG
EC50 (read off the curve) [1] [µg/mL],"IC50 (inhibition of VEGFA-induced HUVEC proliferation, CellTiter-Glo) [2] [µg/mL]",Kd [3] [nM],IC50 [4] [nM],IC50 [5] [µg/mL],Substance
0.07,0.0045,0.0361,,,Eylea (Fc fusion)
,,,16.9,0.0169,Conbercept eye injection (Fc fusion)
